Results published in US20170355757A1 (Regeneron, published 2017).
Numbering of substitutions follows the chain as printed. In names and notes the source's numbering stands.

T1: monkey C5-mmh (monkey, UniProt P01031 19-1676 (human entry), limits assumed)
T1 construct: recombinant, with C-terminal myc-myc-hexahistidine tag
T1 chain: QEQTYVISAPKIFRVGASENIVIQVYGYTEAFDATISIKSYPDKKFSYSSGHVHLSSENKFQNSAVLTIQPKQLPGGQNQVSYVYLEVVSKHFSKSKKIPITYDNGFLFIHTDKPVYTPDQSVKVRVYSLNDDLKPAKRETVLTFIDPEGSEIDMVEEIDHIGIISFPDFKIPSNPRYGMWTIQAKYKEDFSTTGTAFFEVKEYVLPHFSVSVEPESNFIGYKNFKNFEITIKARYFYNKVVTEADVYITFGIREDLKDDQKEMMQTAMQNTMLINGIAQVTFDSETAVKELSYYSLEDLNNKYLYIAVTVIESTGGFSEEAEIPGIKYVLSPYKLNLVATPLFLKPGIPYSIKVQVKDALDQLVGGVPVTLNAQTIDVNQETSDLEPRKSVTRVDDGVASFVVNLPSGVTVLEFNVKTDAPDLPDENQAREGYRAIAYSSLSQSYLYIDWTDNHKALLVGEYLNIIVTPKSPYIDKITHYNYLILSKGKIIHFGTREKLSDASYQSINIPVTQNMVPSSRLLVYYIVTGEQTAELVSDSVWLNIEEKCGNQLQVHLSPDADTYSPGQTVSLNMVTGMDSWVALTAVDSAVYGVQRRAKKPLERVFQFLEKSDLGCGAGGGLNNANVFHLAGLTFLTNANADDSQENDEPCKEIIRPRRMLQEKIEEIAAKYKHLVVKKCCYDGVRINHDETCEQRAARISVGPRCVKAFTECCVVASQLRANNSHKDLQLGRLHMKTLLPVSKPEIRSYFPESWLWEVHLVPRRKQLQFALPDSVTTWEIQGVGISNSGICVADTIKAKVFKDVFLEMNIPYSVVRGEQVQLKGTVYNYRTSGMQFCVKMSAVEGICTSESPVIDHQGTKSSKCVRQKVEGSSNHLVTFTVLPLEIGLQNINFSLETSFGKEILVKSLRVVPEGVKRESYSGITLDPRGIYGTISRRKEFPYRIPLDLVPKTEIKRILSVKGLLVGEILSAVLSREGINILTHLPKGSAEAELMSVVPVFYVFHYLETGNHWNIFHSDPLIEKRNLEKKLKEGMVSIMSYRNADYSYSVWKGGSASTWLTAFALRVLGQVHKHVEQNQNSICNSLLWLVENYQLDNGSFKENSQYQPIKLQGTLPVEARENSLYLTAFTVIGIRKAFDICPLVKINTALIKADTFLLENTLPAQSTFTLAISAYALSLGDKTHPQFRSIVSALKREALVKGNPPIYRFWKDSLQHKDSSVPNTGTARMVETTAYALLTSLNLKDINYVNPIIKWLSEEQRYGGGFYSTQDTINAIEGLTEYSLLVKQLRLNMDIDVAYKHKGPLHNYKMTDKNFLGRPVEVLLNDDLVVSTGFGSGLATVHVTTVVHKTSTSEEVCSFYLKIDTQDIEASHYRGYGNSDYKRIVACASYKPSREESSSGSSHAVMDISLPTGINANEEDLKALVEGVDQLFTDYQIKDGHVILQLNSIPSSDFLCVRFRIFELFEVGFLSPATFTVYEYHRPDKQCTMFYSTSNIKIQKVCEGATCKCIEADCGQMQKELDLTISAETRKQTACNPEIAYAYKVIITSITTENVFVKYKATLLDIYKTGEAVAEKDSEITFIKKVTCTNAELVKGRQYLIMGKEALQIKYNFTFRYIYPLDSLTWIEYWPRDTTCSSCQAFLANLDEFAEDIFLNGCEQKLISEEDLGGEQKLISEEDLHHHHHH

B1: H4H12167P (antibody, human IgG4, V domains shown)
VH: QVQLVESGGGLVKPGGSLRLSCAASGFTFSDSYMSWIRQAPGKGLEWISYIGSSGNTFYYADSVKGRFTISRDNANNLLYLQMTSLRAEDTAVYYCAREEGDFWSAVDSWGQGTLVTVSS
VL: DIQLTQSPSFLSASVGDRVTITCWASQGISSYLAWYQQKPGKAPKLLIHTASTLQSGVPSRFSGSGSGTEFTLTISNLQPEDFATYYCQQLNSYPFTFGPGTKVDIK
notes: H4H: human IgG4 Fc with S108P hinge mutation
B2: H4H12163P (antibody, human IgG4, V domains shown)
VH: EVQLVESGGDLVQPGGSLRLSCAASGFTFSSYAMNWVRQGPGKGLEWVSAISGRGDSTYYADSVKGRLTISRDNSKNTLYLQMNSLRAEDTAVYYCVKEGEQLVYWYFDLWGRGTLVTVSS
VL: DIQMTQSPSSLSASVGDRVTITCRASQTISNFLHWYQQKPGKAPKLLIYAASSLQSGVPSRFSGSGSGTDFTLTISSLQPEDFSTYFCQQSYTTPLTFGGGTKVEIK
notes: as for B1
B3: H4H11683N (antibody, human IgG4, V domains shown)
VH: QVQLVESGGGVVQPGRSLRLSCVASGFTFSSYGIHWVRQAPGKGLEWVAVIWDDGNNINYSDSVKGRFIISRDNSRKTVYLQMNSLRGEDTAVYYCARDAPIAPVPDYWGQGTLVTVSS
VL: DIQMTQSPSTLSASVGDRVTITCRASQSISSWLAWYQQKPGKAPKLLIYKASSLDTGVPSRFSGSGSGTEFTLTISSLQPDDFATYYCQQYNTYSYTFGLGTKLEIK
notes: tested with H4H prefix (human IgG4 Fc with S108P hinge mutation); variable regions follow the numerical identifier; also called H2M11683N
B4: H4H12159P (antibody, human IgG4, V domains shown)
VH: QVQLVESGGGVVQPGRSLRLSCGASGFTFSTYGMHWVRQAPGKGLEWVAVIWDDGNNKYYADSVKGRFTISRDNSKNTLYLQMNSLRAEDTAVYYCARDSEVAPVGDYWGQGTLVTVSS
VL: B3 VL with T22I, S30N, S31R, D55E, T56S, T85A, T93D, L100Q
notes: as for B1

Each binder was assayed against T2, human C5 (human, UniProt P01031 19-1676) (assay: cell-based or functional assay).

Binder	IC50, inhibition of CDC of Daudi cells, 1.66% human serum [nM]
B1	2.5
B2	3.4
B3	1.2
B4	3.2

These binders were tested against T3, African green monkey C5 (African green monkey) (assay: cell-based or functional assay).

Binder	IC50, inhibition of CDC of Daudi cells, 1.66% African Green monkey serum [nM]
B1	3.5
B2	3.7
B3	4
B4	3.4

These binders were tested against human C5 R885H-mmh (human, UniProt P01031 19-1676) (assay: cell-based or functional assay).

Binder	IC50, inhibition of CDC of Daudi cells, C5 depleted human serum and 6.6 nM C5 Variant R885H [nM]
B1	1.9
B2	2.1
B3	1.3
B4	1.4

Each binder was assayed against human C5 R885C-mmh (human, UniProt P01031 19-1676) (assay: cell-based or functional assay).

Binder	IC50, inhibition of CDC of Daudi cells, C5 depleted human serum and 6.6 nM C5 Variant R885C [nM]
B1	1
B2	1.1
B3	0.9
B4	1

Target: T2, human C5
Experiment: cell-based or functional assay
Remark: another data set of the same source

Binder	Human AP % Max Inhibition, hemolysis assay, NHS [%]	Human AP IC50, hemolysis assay, NHS [nM]	Human CP % Max Inhibition, hemolysis assay, NHS [%]	Human CP IC50, hemolysis assay, NHS [nM]
B1	64.8	15.5	99.9	3.68
B2	66	20.5	96.1	2.72
B3	73.2	34	98.1	2.54
B4	73.4	17.5	97.9	2.5

Target: T3, African green monkey C5
Experiment: cell-based or functional assay
Remark: another data set of the same source

Binder	AGM AP % Max Inhibition, hemolysis assay, 5% serum [%]	AGM CP % Max Inhibition, hemolysis assay, 5% serum [%]	AGM Serum AP IC50, hemolysis assay, 5% serum [nM]	AGM Serum CP IC50, hemolysis assay, 5% serum [nM]
B1	53.4	90.5	69.5	69.5
B2	58.5	83.2	216	69
B3	88.1	81.1	40.8	29.2
B4	93.5	93.4	27	25.8

These binders were tested against Cynomolgus monkey C5 (cynomolgus monkey, UniProt A0A2K5U1T1 19-1676) (assay: cell-based or functional assay).

Binder	Cyno AP % Max Inhibition, hemolysis assay, 5% serum [%]	Cyno CP % Max Inhibition, hemolysis assay, 5% serum [%]	Cyno Serum AP IC50, hemolysis assay, 5% serum [nM]	Cyno Serum CP IC50, hemolysis assay, 5% serum [nM]
B1	98.3	100	7.6	21.3
B2	98.5	96.4	10.2	16.5
B3	98.9	98.8	7.15	9
B4	99.6	99.3	7.05	7.75

Each binder was assayed against T2, human C5 (assay: SPR (Biacore), mAb captured, dissociation of human C5 at pH7.4 vs pH6.0, 37°C).
In short: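 Anti-C5 mAbs (human IgG4 Fc) captured on an amine-coupled mouse anti-human Fc surface; recombinant C5 dissociation followed by Biacore T200 in PBS-T (0.01M phosphate, 0.15M NaCl, 0.05% Tween-20) at pH7.4 or pH6.0. Dissociative half-life (t½) calculated from kd.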

Binder	t½ Ratio pH7.4/pH6.0
B1	0.2
B2	0.8
B3	1.4
B4	≤ 0.2

Target: T1, monkey C5-mmh
Experiment: SPR (Biacore), mAb captured, dissociation of monkey C5 at pH7.4 vs pH6.0, 25°C

Binder	t½ Ratio pH7.4/pH6.0
B1	9.2
B2	9.7
B3	0.34
B4	1.2

Target: T1, monkey C5-mmh
Experiment: SPR (Biacore), mAb captured, dissociation of monkey C5 at pH7.4 vs pH6.0, 37°C

Binder	t½ Ratio pH7.4/pH6.0
B1	4.4
B2	3.3
B3	0.7
B4	6.3
